Measurements reported in article PMC10540216, “Activity Guided Azide-methyllysine Photo-trapping for Substrate Profiling of Lysine Demethylases” (Journal of the American Chemical Society, 2023).

B1: RBM33_HUMAN (protein, UniProt Q96EV2 2-1170, looked up)
RNA-binding protein 33: AAALGASGGAGAGDDDFDQFDKPGAERSWRRRAADEDWDSELEDDLLGEDLLSGKKNQSDLSDEELNDDLLQSDNEDEENFSSQGVTISLNATSGMVTSFELSDNTNDQSGEQESEYEQEQGEDELVYHKSDGSELYTQEYPEEGQYEGHEAELTEDQIEYVEEPEEEQLYTDEVLDIEINEPLDEFTGGMETLELQKDIKEESDEEEEDDEESGRLRFKTERKEGTIIRLSDVTRERRNIPETLELSAEAKAALLEFEERERQHKQGRYSSRRGGRRGGPLMCRGVGDQRRESTERGRMKDHRPALLPTQPPVVPQAPPPPPPPPQQQPIRSLFQPQPLQPLLPVQHPHHPSPPQGMHMPPQLETPRMMMTPPPVTPQQPKNIHINPHFKGTVVTPVQVPLLPVPSQPRPAVGPQRFPGPPEFPQHTPGPVPNSFSQPPRLPLQDQWRAPPPPQDRDPFFLGVSGEPRFPSHLFLEQRSPPPPPPPPTLLNSSHPVPTQSPLPFTQPGPAFNQQGQQPVFPRERPVRPALQPPGPVGILHFSQPGSATTRPFIPPRQPFLPGPGQPFLPTHTQPNLQGPLHPPLPPPHQPQPQQPQQQPPPQHQPPHQPPHQPPPQHQPPPQHPPQHPPQHQHHHHHHHLSVPPPPLMPMSQPQFRPHVQTAQPQASSSRMQCPQRQGLRHNTTSQNVSKRPMQQMQPTAPRNSNLRELPIAPSHVIEMSSSRCSATPSAQVKPIVSASPPSRAVAGSRSSQGKTEVKVKPASPVAQPKEEAKTETEFPDEDEETRLYRLKIEEQKRLREEILKQKELRRQQQAGARKKELLERLAQQQQQLYAPPPPAEQEEQALSPSPTNGNPLLPFPGAQVRQNVKNRLLVKNQDVSISNVQPKTSNFVPSSANMQYQGQQMKALKHLRQTRTVPQSQTQPLHKVLPIKPADVEEPAVPQTPRVASIQGRPQDTKPGVKRTVTHRTNSGGGDGPHISSKVRVIKLSGGGGESDGFFHPEGQPQRLPQPPEVGPQPARKVTLTRGGLQQPPHLPAGPHAHSPVPPGIKSIQGIHPAKKAIMHGRGRGVAGPMGRGRLMPNKQNLRVVECKPQPCVVSVEGLSSSTTDAQLKSLLMSVGPIQSLQMLPQQRKAIAKFKEPAHALAFQQKFHRHMIDLSHINVALIVE
B2: KRT85_HUMAN (protein, UniProt P78386 1-507, looked up)
Keratin, type II cuticular Hb5: MSCRSYRISSGCGVTRNFSSCSAVAPKTGNRCCISAAPYRGVSCYRGLTGFGSRSLCNLGSCGPRIAVGGFRAGSCGRSFGYRSGGVCGPSPPCITTVSVNESLLTPLNLEIDPNAQCVKQEEKEQIKSLNSRFAAFIDKVRFLEQQNKLLETKWQFYQNQRCCESNLEPLFSGYIETLRREAECVEADSGRLASELNHVQEVLEGYKKKYEEEVALRATAENEFVVLKKDVDCAYLRKSDLEANVEALVEESSFLRRLYEEEIRVLQAHISDTSVIVKMDNSRDLNMDCIIAEIKAQYDDVASRSRAEAESWYRSKCEEMKATVIRHGETLRRTKEEINELNRMIQRLTAEIENAKCQRAKLEAAVAEAEQQGEAALSDARCKLAELEGALQKAKQDMACLLKEYQEVMNSKLGLDIEIATYRRLLEGEEHRLCEGVGSVNVCVSSSRGGVSCGGLSYSTTPGRQITSGPSAIGGSITVVAPDSCAPCQPRSSSFSCGSSRSVRFA
B3: SMC3_HUMAN (protein, UniProt Q9UQE7 1-1217, looked up)
Structural maintenance of …: MYIKQVIIQGFRSYRDQTIVDPFSSKHNVIVGRNGSGKSNFFYAIQFVLSDEFSHLRPEQRLALLHEGTGPRVISAFVEIIFDNSDNRLPIDKEEVSLRRVIGAKKDQYFLDKKMVTKNDVMNLLESAGFSRSNPYYIVKQGKINQMATAPDSQRLKLLREVAGTRVYDERKEESISLMKETEGKREKINELLKYIEERLHTLEEEKEELAQYQKWDKMRRALEYTIYNQELNETRAKLDELSAKRETSGEKSRQLRDAQQDARDKMEDIERQVRELKTKISAMKEEKEQLSAERQEQIKQRTKLELKAKDLQDELAGNSEQRKRLLKERQKLLEKIEEKQKELAETEPKFNSVKEKEERGIARLAQATQERTDLYAKQGRGSQFTSKEERDKWIKKELKSLDQAINDKKRQIAAIHKDLEDTEANKEKNLEQYNKLDQDLNEVKARVEELDRKYYEVKNKKDELQSERNYLWREENAEQQALAAKREDLEKKQQLLRAATGKAILNGIDSINKVLDHFRRKGINQHVQNGYHGIVMNNFECEPAFYTCVEVTAGNRLFYHIVDSDEVSTKILMEFNKMNLPGEVTFLPLNKLDVRDTAYPETNDAIPMISKLRYNPRFDKAFKHVFGKTLICRSMEVSTQLARAFTMDCITLEGDQVSHRGALTGGYYDTRKSRLELQKDVRKAEEELGELEAKLNENLRRNIERINNEIDQLMNQMQQIETQQRKFKASRDSILSEMKMLKEKRQQSEKTFMPKQRSLQSLEASLHAMESTRESLKAELGTDLLSQLSLEDQKRVDALNDEIRQLQQENRQLLNERIKLEGIITRVETYLNENLRKRLDQVEQELNELRETEGGTVLTATTSELEAINKRVKDTMARSEDLDNSIDKTEAGIKELQKSMERWKNMEKEHMDAINHDTKELEKMTNRQGMLLKKKEECMKKIRELGSLPQEAFEKYQTLSLKQLFRKLEQCNTELKKYSHVNKKALDQFVNFSEQKEKLIKRQEELDRGYKSIMELMNVLELRKYEAIQLTFKQVSKNFSEVFQKLVPGGKATLVMKKGDVEGSQSQDEGEGSGESERGSGSQSSVPSVDQFTGVGIRVSFTGKQGEMREMQQLSGGQKSLVALALIFAIQKCDPAPFYLFDEIDQALDAQHRKAVSDMIMELAVHAQFITTTFRPELLESADKFYGVKFRNKVSHIDVITAEMAKDFVEDDTTHG
B4: AMOT_HUMAN (protein, UniProt Q4VCS5 1-1084, looked up)
Angiomotin: MRNSEEQPSGGTTVLQRLLQEQLRYGNPSENRSLLAIHQQATGNGPPFPSGSGNPGPQSDVLSPQDHHQQLVAHAARQEPQGQEIQSENLIMEKQLSPRMQNNEELPTYEEAKVQSQYFRGQQHASVGAAFYVTGVTNQKMRTEGRPSVQRLNPGKMHQDEGLRDLKQGHVRSLSERLMQMSLATSGVKAHPPVTSAPLSPPQPNDLYKNPTSSSEFYKAQGPLPNQHSLKGMEHRGPPPEYPFKGMPPQSVVCKPQEPGHFYSEHRLNQPGRTEGQLMRYQHPPEYGAARPAQDISLPLSARNSQPHSPTSSLTSGGSLPLLQSPPSTRLSPARHPLVPNQGDHSAHLPRPQQHFLPNQAHQGDHYRLSQPGLSQQQQQQQQQHHHHHHHQQQQQQQPQQQPGEAYSAMPRAQPSSASYQPVPADPFAIVSRAQQMVEILSDENRNLRQELEGCYEKVARLQKVETEIQRVSEAYENLVKSSSKREALEKAMRNKLEGEIRRMHDFNRDLRERLETANKQLAEKEYEGSEDTRKTISQLFAKNKESQREKEKLEAELATARSTNEDQRRHIEIRDQALSNAQAKVVKLEEELKKKQVYVDKVEKMQQALVQLQAACEKREQLEHRLRTRLERELESLRIQQRQGNCQPTNVSEYNAAALMELLREKEERILALEADMTKWEQKYLEENVMRHFALDAAATVAAQRDTTVISHSPNTSYDTALEARIQKEEEEILMANKRCLDMEGRIKTLHAQIIEKDAMIKVLQQRSRKEPSKTEQLSCMRPAKSLMSISNAGSGLLSHSSTLTGSPIMEEKRDDKSWKGSLGILLGGDYRAEYVPSTPSPVPPSTPLLSAHSKTGSRDCSTQTERGTESNKTAAVAPISVPAPVAAAATAAAITATAATITTTMVAAAPVAVAAAAAPAAAAAPSPATAAATAAAVSPAAAGQIPAAASVASAAAVAPSAAAAAAVQVAPAAPAPVPAPALVPVPAPAAAQASAPAQTQAPTSAPAVAPTPAPTPTPAVAQAEVPASPATGPGPHRLSIPSLTCNPDKTDGPVFHSNTLERKTPIQILGQEPDAEMVEYLI
B5: SF3B2_HUMAN (protein, UniProt Q13435 1-895, looked up)
Splicing factor 3B subunit 2: MATEHPEPPKAELQLPPPPPPGHYGAWAAQELQAKLAEIGAPIQGNREELVERLQSYTRQTGIVLNRPVLRGEDGDKAAPPPMSAQLPGIPMPPPPLGLPPLQPPPPPPPPPPGLGLGFPMAHPPNLGPPPPLRVGEPVALSEEERLKLAQQQAALLMQQEERAKQQGDHSLKEHELLEQQKRAAVLLEQERQQEIAKMGTPVPRPPQDMGQIGVRTPLGPRVAAPVGPVGPTPTVLPMGAPVPRPRGPPPPPGDENREMDDPSVGPKIPQALEKILQLKESRQEEMNSQQEEEEMETDARSSLGQSASETEEDTVSVSKKEKNRKRRNRKKKKKPQRVRGVSSESSGDREKDSTRSRGSDSPAADVEIEYVTEEPEIYEPNFIFFKRIFEAFKLTDDVKKEKEKEPEKLDKLENSAAPKKKGFEEEHKDSDDDSSDDEQEKKPEAPKLSKKKLRRMNRFTVAELKQLVARPDVVEMHDVTAQDPKLLVHLKATRNSVPVPRHWCFKRKYLQGKRGIEKPPFELPDFIKRTGIQEMREALQEKEEQKTMKSKMREKVRPKMGKIDIDYQKLHDAFFKWQTKPKLTIHGDLYYEGKEFETRLKEKKPGDLSDELRISLGMPVGPNAHKVPPPWLIAMQRYGPPPSYPNLKIPGLNSPIPESCSFGYHAGGWGKPPVDETGKPLYGDVFGTNAAEFQTKTEEEEIDRTPWGELEPSDEESSEEEEEEESDEDKPDETGFITPADSGLITPGGFSSVPAGMETPELIELRKKKIEEAMDGSETPQLFTVLPEKRTATVGGAMMGSTHIYDMSTVMSRKGPAPELQGVEVALAPEELELDPMAMTQKYEEHVREQQAQVEKEDFSDMVAEHAAKQKQKKRKAQPQDSRGGSKKYKEFKF
B6: ATX2L_HUMAN (protein, UniProt Q8WWM7 1-1075, looked up)
Ataxin-2-like protein: MLKPQPLQQPSQPQQPPPTQQAVARRPPGGTSPPNGGLPGPLATSAAPPGPPAAASPCLGPVAAAGSGLRRGAEGILAPQPPPPQQHQERPGAAAIGSARGQSTGKGPPQSPVFEGVYNNSRMLHFLTAVVGSTCDVKVKNGTTYEGIFKTLSSKFELAVDAVHRKASEPAGGPRREDIVDTMVFKPSDVMLVHFRNVDFNYATKDKFTDSAIAMNSKVNGEHKEKVLQRWEGGDSNSDDYDLESDMSNGWDPNEMFKFNEENYGVKTTYDSSLSSYTVPLEKDNSEEFRQRELRAAQLAREIESSPQYRLRIAMENDDGRTEEEKHSAVQRQGSGRESPSLASREGKYIPLPQRVREGPRGGVRCSSSRGGRPGLSSLPPRGPHHLDNSSPGPGSEARGINGGPSRMSPKAQRPLRGAKTLSSPSNRPSGETSVPPPPAVGRMYPPRSPKSAAPAPISASCPEPPIGSAVPTSSASIPVTSSVSDPGVGSISPASPKISLAPTDVKELSTKEPGRTLEPQELARIAGKVPGLQNEQKRFQLEELRKFGAQFKLQPSSSPENSLDPFPPRILKEEPKGKEKEVDGLLTSEPMGSPVSSKTESVSDKEDKPPLAPSGGTEGPEQPPPPCPSQTGSPPVGLIKGEDKDEGPVAEQVKKSTLNPNAKEFNPTKPLLSVNKSTSTPTSPGPRTHSTPSIPVLTAGQSGLYSPQYISYIPQIHMGPAVQAPQMYPYPVSNSVPGQQGKYRGAKGSLPPQRSDQHQPASAPPMMQAAAAAGPPLVAATPYSSYIPYNPQQFPGQPAMMQPMAHYPSQPVFAPMLQSNPRMLTSGSHPQAIVSSSTPQYPSAEQPTPQALYATVHQSYPHHATQLHAHQPQPATTPTGSQPQSQHAAPSPVQHQAGQAPHLGSGQPQQNLYHPGALTGTPPSLPPGPSAQSPQSSFPQPAAVYAIHHQQLPHGFTNMAHVTQAHVQTGITAAPPPHPGAPHPPQVMLLHPPQSHGGPPQGAVPQSGVPALSASTPSPYPYIGHPQGEQPGQAPGFPGGADDRIREFSLAGGIWHGRAEGLQVGQDARVLGGE

tested on: KDM4A-I71AzF; test: CASI: photo-crosslinking with HEK293T cell extracts, StrepTactin enrichment and LC-MS/MS proteomics; format: binding, human; conditions: sheet "Final results but with 0.01";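 note: lysates from HEK293T cells pretreated with a KDM4 inhibitor to raise proteome methylation, affinity-purified after ±UV, gel-resolved, trypsin-digested, with exclusive unique peptides per protein averaged per condition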

Molecule	Fold change (+UV/-UV)
B1	0.3333
B2	3
B3	0.375
B4	1.125
B5	0.7273
B6	0
